Measurements: patent US12649776B2, “Scaffold proteins and therapeutic nanoconjugates based on nidogen” (UNIVERSITAT AUTÒNOMA DE BARCELONA, priority 2019, dated 2026)

Experiments:
[1] = Volume size distribution of protein nanoparticles and nanoconjugates by Dynamic Light Scattering (DLS); type: physicochemical; conditions: self-assembled material in storage (carbonate) buffer
Protocol: Volume size distribution of all protein nanoparticles and nanoconjugates were determined by Dynamic Light Scattering (DLS) at 633 nm in a Zetasizer Nano ZS (Malvern Instruments) in triplicate.
Volume size distribution of protein nanoparticles was determined in a Zetasizer Nano ZS (Malvern Instruments) by Dynamic Light Scattering (DLS) at 633 nm in triplicates.
The integrity of the recombinant proteins was checked by mass spectrometry (MALDI-TOF), TGX (Tris-Glycine eXtended) Stain-Free acrylamide gels electrophoresis (BioRad) and Western Blot analysis using anti-His monoclonal antibody (1:1000; Santa Cruz, ref. 57598). Protein concentration was determined by Bradford (Biorad) assay with an Albumin (Roche) standard curve. GFP fluorescence emission (510 nm) was determined on purified proteins with a Cary Eclipse fluorescence spectrophotometer (Agilent Technologies) using an excitation wavelength of 450 nm. The volume and size distribution of nanoparticles were measured by dynamic light scattering (DLS) at 633 nm through a Zetasizer Nano ZS (Malvern Instruments) using quartz cuvettes.

[2] = literature value; cited from earlier work
CXCR4+ SW1417 cells = experiment: Protein internalization of EPIX4 / T22 / biparatopic nanoparticles (flow cytometry); type: cell-based, human; conditions: 1 μM
Protocol: (§1) Experiments were performed in CXCR4+ cervical and colorectal cell lines (HeLa and SW1417, respectively). HeLa cells were cultured in Eagle's Minimum Essential Medium (Gibco) and SW1417 in Dulbecco's Modified Eagle's Medium (Gibco). Both cell lines were supplemented with 10% fetal bovine serum (Gibco) and incubated in a humidified atmosphere at 37° C. and 5% (HeLa) or 10% (SW1417) of CO2.
(§2) For testing protein internalization, cells were seeded in 24-well plates (Nunc) (30000 cells wells^−1) for 24 h. Briefly, the medium was removed, and cells were washed with PBS. Then protein was incubated at 1 and 2 μM, diluted in OptiPro medium supplemented with L-Glutamine and incubated at different times, at suitable cell line conditions. Then, harsh trypsin digestion (1 mg ml^−1 for 15 min) (Gibco) was carried out to remove protein particles bound to the outer size of the cell membranes. Intracellular green fluorescence was analyzed by flow cytometry on an FACS-Calibur system (Becton Dickinson) using a 15 mW air-cooled argon ion laser at 488 nm excitation. Fluorescence emission was measured with a D detector (530/30 nm band pass filter), and manually corrected by the specific fluorescence of purified protein, to get data representative of the amount of internalized protein for comparative purposes. […]

CXCR4+ HeLa cells = experiment: Protein internalization of EPIX4 / T22 / biparatopic nanoparticles (flow cytometry, AMD3100 competition, confocal); type: cell-based, human; conditions: 1 μM
Protocol: as §1, §2

Substance | Nanoparticle size (volume size distribution, DLS) [1] | Tonset, 1 [2] | Time course of cell uptake (CXCR4+ SW1417 cells) | Time course of cell uptake (CXCR4+ HeLa cells) | Tm [2]
T22-GFP-H6: Modular protein: T22 ligand, Green Fluorescent Protein scaffold, C-terminal poly-histidine [reference compound] | ~11 nm | 75 °C | high uptake at short times | high uptake at short times | 
Human Collagen Type I: human collagen type I, literature comparator (Leikina et al) |  | 38.2 °C |  |  | 40.3° C.^
